Target: T1, MBP-METTL7A WT (human, UniProt Q9H8H3 1-244)
T1 sequence: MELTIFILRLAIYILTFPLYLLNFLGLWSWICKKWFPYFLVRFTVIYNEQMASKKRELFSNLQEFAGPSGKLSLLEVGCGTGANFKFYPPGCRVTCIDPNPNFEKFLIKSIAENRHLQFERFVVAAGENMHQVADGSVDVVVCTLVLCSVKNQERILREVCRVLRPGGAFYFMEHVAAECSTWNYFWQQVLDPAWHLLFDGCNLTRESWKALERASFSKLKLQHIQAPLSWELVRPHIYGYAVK
Assay: EMSA

B1: 60 bp dsDNA (dsDNA)
DNA 1: ATTCTTCCGAGTTTTTTCCTCATCTCACTTCCAATACAGAAAGCTTGCCCCGCCCTTCCT
DNA 2: AGGAAGGGCGGGGCAAGCTTTCTGTATTGGAAGTGAGATGAGGAAAAAACTCGGAAGAAT
B1: binds.
